Assay [1] deals with recombinant human IL-13 R110Q (human), P35225. Nature of the assay: cell-based or functional assay.
For assay [2], the target named is recombinant human IL-33 (R&D Systems 3625-IL) (human) (UniProt O95760). Nature of the assay: cell-based or functional assay.
The target of assay [3] is recombinant human IL-33 (R&D Systems 3625-IL), reduced with DTT (human) (UniProt O95760). Put plainly: cell-based or functional assay.
Assay [4] has the same target. Nature of the assay: cell-based or functional assay. The source holds these as a separate data set.
Assay [5] addresses T1, biotinylated human IL-33 wild-type (WT), reduced with 3 mM DTT (human) (UniProt O95760).
T1 sequence (biotinylated (site not stated), looked up): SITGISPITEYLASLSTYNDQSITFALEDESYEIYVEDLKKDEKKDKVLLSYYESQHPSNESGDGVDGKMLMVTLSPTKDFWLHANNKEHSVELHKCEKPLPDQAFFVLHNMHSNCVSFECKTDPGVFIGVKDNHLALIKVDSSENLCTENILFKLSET
Put plainly: KinExA solution affinity, fixed antigen format, global fit.

Data on four molecules can be found in patent US20240117030A1.

Like-named read-outs stand apart in the source and are kept apart here.

recombinant human IL-13 R110Q (human), P35225, sequence (P35225 35-146, stated change not applied): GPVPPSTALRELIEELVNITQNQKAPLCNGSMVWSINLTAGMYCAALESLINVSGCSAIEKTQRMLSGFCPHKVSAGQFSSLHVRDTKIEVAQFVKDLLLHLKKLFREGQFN

B1: IL13-0001 (antibody, human IgG1, kappa)
heavy: EVQLVESGGGLVQPGGSLRLSCAASGFTFSSYAMSWVRQAPGKGLEWVASISSGDTTYYPDSVKGRFTISRDNAKNSLYLQMNSLRAEDTAVYYCARNEGYYFGLTLWGQGTLVTVSSASTKGPSVFPLAPSSKSTSGGTAALGCLVKDYFPEPVTVSWNSGALTSGVHTFPAVLQSSGLYSLSSVVTVPSSSLGTQTYICNVNHKPSNTKVDKKVEPKSCDKTHTCPPCPAPEAAGAPSVFLFPPKPKDTLMISRTPEVTCVVVDVSHEDPEVKFNWYVDGVEVHNAKTKPREEQYNSTYRVVSVLTVLHQDWLNGKEYKCKVSNKALPAPIEKTISKAKGQPREPQVYTLPPSREEMTKNQVSLTCLVKGFYPSDIAVEWESNGQPENNYKTTPPVLDSDGSFFLYSKLTVDKSRWQQGNVFSCSVMHEALHNHYTQKSLSLSPGK
light: DIQMTQSPSSLSASVGDRVTITCKASESVDHFGWSLVHWYQQKPGKAPKLLIYRASNLESGVPSRFSGSGSGTDFTLTISSLQPEDFATYYCQQSNEDPWTFGGGTKVEIKRTVAAPSVFIFPPSDEQLKSGTASVVCLLNNFYPREAKVQWKVDNALQSGNSQESVTEQDSKDSTYSLSSTLTLSKADYEKHKVYACEVTHQGLSSPVTKSFNRGEC
As for B1, in assay [1], the IC50 (median), Monocyte CD23 expression was 0.0101 nM and the IC50 (median), STAT6 phosphorylation in HT-29 cells came out at 0.104 nM.

B2: IL33-310 (antibody, from a related filing, V domains shown)
VH: EVQLVESGGGLVQPGGSLRLSCAASGFTFSSFSMSWVRQAPGKGLEWVATISGGKTFTDYVDSVKGRFTISRDDSKNTLYLQMNSLRAEDTAVYYCTRANYGNWFFEVWGQGTLVTVSS
VL: EIVLTQSPATLSLSPGERATLSCRASESVAKYGLSLLNWFQQKPGQPPRLLIFAASNRGSGIPARFSGSGSGTDFTLTISSLEPEDFAVYYCQQSKEVPFTFGQGTKVEIKR
Turning to B2, the IC50 (pM) HEK-Blue IL-33 SEAP (mean) in assay [2] turned out to be 56.4 pM.

B3: IL33-0352 (Clinical Benchmark) (antibody, INN chains, looked up, V domains shown)
VH: EVQLVESGGNLEQPGGSLRLSCTASGFTFSRSAMNWVRRAPGKGLEWVSGISGSGGRTYYADSVKGRFTISRDNSKNTLYLQMNSLSAEDTAAYYCAKDSYTTSWYGGMDVWGHGTTVTVSS
VL: DIQMTQSPSSVSASVGDRVTITCRASQGIFSWLAWYQQKPGKAPKLLIYAASSLQSGVPSRFSGSGSGTDFTLTISSLQPEDFAIYYCQQANSVPITFGQGTRLEIK
modifications: IgG1 effector-null
With B3, the figures for the IC50 [nM] versus reduced human IL-33 (R&D), IC50 (AVE) in assay [3] and in assay [4] were 0.011 nM and 0.018 nM, respectively. In assay [5], the Kd (in general, the free concentration of one partner at which half of the binding sites on the other are occupied at equilibrium, for simple one-to-one binding) stood at 0.00066 nM.

B4: IL33-265 (antibody, from a related filing, V domains shown)
VH: B3 VH
VL: DIQMTQSPSSVSASVGDRVTITCRASQGIFSWLAWYQQKPGKAPKLLIYAASSLQSGVPSRFSGSGSGTDFTLTISSLQPEDFAIYYCQQANSVPITFGQGTRLEIKR
Regarding B4, the IC50 (pM) HEK-Blue IL-33 SEAP (mean) in assay [2] came out at 15.9 pM.
